# In the RNAGym collection of RNA variant scans (doi:10.1021/acssynbio.7b00057):
# B1: Pistol ribozyme (parent)
# chain: GGGUCGUUGUUCCAUAAUCGCGUGGAUAUGGCACGCAAGUUUCUACCGGGCACCGUAAAUGUCCGACUGGAGCCGUUCGGGCGGCUAUAAACAGACCUCAGGCCCGAAGCGUGGCGGCACCUGCCGCCGGUGGUAAAAAAGAUCGGAAGAGCACACGUCU
# Variants of: B1
# Assay: aptazyme ON/OFF ratio, guanine; higher = stronger switching; co-transcriptional cleavage with and without guanine
row,Variant,aptazyme ON/OFF ratio
1,U7A U10A U11C C12U C13U,1.04
2,U7A U10A U11C C12U C13G,1.07
3,U7A U10A U11C C12U C13A,1.07
4,U7A U8G G9U U11A C12G C13G,1.26
5,U7A U8G G9U U11A C12G C13A,1.11
6,U7A U8G G9U U11A C12G C13U,1.39
7,U7A U8G U10C C12A C13A,1.41
8,U7A U8G U10C C12A C13U,1.51
9,U7A U8G U10C C12A C13G,1.25
10,U7A U8G U11A C12A C13G,1.3
11,U7A U8G U11A C12A C13U,1.07
12,U7A U8G U11A C12A C13A,1.41
13,U7A U8G U11C C12A C13A,1.17
14,U7A U8G U11C C12A C13G,1.12
15,U7A U8G U11C C12A C13U,1.19
16,U7A U8G U11G C12A C13U,1.21
17,U7A U8G U11G C12A C13G,1.33
18,U7A U8G U11G C12A C13A,1.18
19,U7A U8G U10C C12U C13A,1.55
20,U7A U8G U10C C12U C13U,1.51
21,U7A U8G U10C C12U C13G,1.4
22,U7A U8G U10A U11G C12A,1.43
23,U7A U8G U10A U11G C12G,1.32
24,U7A U8G U10A U11G C12U,1.12

row,Variant,aptazyme ON/OFF ratio
1,U7A U8G U10G C13U,1.55
2,U7A U8G U10G C13A,1.26
3,U7A U8G U10G C13G,1.14
4,U7A U8G U11G C13A,1.26
5,U7A U8G U11G C13G,1.24
6,U7A U8G U11G C13U,1.31
7,U7A U8G U10G U11C C12G C13U,1.56
8,U7A U8G U10G U11C C12G C13G,1.22
9,U7A U8G U10G U11C C12G C13A,1.22
10,U7A U8G U10A U11A C12G C13U,1.63
11,U7A U8G U10A U11A C12G C13A,1.56
12,U7A U8G U10A U11A C12G C13G,1.26
13,U7A U8G U10G U11G C12G C13A,1.45
14,U7A U8G U10G U11G C12G C13U,1.18
15,U7A U8G U10G U11G C12G C13G,1.03
16,U7A U8G U10C U11G C12U C13U,1.31
17,U7A U8G U10C U11G C12U C13A,1.26
18,U7A U8G U10C U11G C12U C13G,1.44
19,U7A U8G U11C C13U,1.11
20,U7A U8G U11C C13G,1.35
21,U7A U8G U11C C13A,1.51
22,U7A U10A U11G C12A C13G,1.39
23,U7A U10A U11G C12A C13A,1.17
24,U7A U10A C12A,1.31

row,Variant,aptazyme ON/OFF ratio
1,U7A U10A C12G,1.22
2,U7A U10A C12U,1.1
3,U7A U10A C12A C13A,1.27
4,U7A U10A C12A C13G,1.1
5,U7A U10A C12A C13U,1.39
6,U7A U8G U10C U11C C13U,1.12
7,U7A U8G U10C U11C C13A,1.06
8,U7A U8G U10C U11C C13G,1.13
9,U7A U8G U10A C12G,1.22
10,U7A U8G U10A C12A,1.23
11,U7A U8G U10A C12U,1.17
12,U7A U8G U11G C12G,1.36
13,U7A U8G U11G C12U,1.29
14,U7A U8G U11G C12A,1.31
15,U7A U10A U11A C12A C13G,1.14
16,U7A U10A U11A C12A C13U,1.21
17,U7A U10A U11A C12A C13A,1.23
18,U7A U8G U11A C13U,1.11
19,U7A U8G U11A C13A,1.31
20,U7A U8G U11A C13G,1.4
21,U7A U8G U10C U11G C12G C13U,1.41
22,U7A U8G U10C U11G C12G C13A,1.19
23,U7A U8G U10C U11G C12G C13G,1.35
24,U7A U8G U10G U11A C12U C13U,1.15

row,Variant,aptazyme ON/OFF ratio
1,U7A U8G U10G U11A C12U C13G,0.975
2,U7A U8G U10G U11A C12U C13A,1.21
3,U7A U8G U11A C12A,1.43
4,U7A U8G U11A C12G,1.2
5,U7A U8G U11A C12U,1.23
6,U7A U8G U10A U11A,2.54
7,U7A U8G U10A U11G,1.95
8,U7A U8G U10A U11C,1.11
9,U7A U8G G9U U11G C12A C13U,1.2
10,U7A U8G G9U U11G C12A C13G,1.27
11,U7A U8G G9U U11G C12A C13A,1.26
12,U7A U8G U10A U11A C13U,1.1
13,U7A U8G U10A U11A C13G,1.38
14,U7A U8G U10A U11A C13A,1.28
15,U7A U8G U10A U11G C12G C13A,1.16
16,U7A U8G U10A U11G C12G C13U,1.46
17,U7A U8G U10A U11G C12G C13G,1.43
18,U7A U8G U10G U11G C12A C13U,1.41
19,U7A U8G U10G U11G C12A C13A,1.22
20,U7A U8G U10G U11G C12A C13G,1.47
21,U7A U8G G9U U11A C12U C13G,1.26
22,U7A U8G G9U U11A C12U C13A,1.43
23,U7A U8G G9U U11A C12U C13U,1.07
24,U7A U8G U10A,2.44

row,Variant,aptazyme ON/OFF ratio
1,U7A U8G U10G,1.25
2,U7A U8G U10C,1.75
3,U7A U8G U10A U11C C12G C13G,1.26
4,U7A U8G U10A U11C C12G C13A,1.56
5,U7A U8G U10A U11C C12G C13U,1.21
6,U7A U8G U10G U11G C12U C13U,1.38
7,U7A U8G U10G U11G C12U C13G,1.33
8,U7A U8G U10G U11G C12U C13A,1.31
9,U7A U8G G9U U11G C12G C13A,1.22
10,U7A U8G G9U U11G C12G C13U,1.22
11,U7A U8G G9U U11G C12G C13G,1.19
12,U7A U8G U11G C12G C13A,1.15
13,U7A U8G U11G C12G C13U,1.42
14,U7A U8G U11G C12G C13G,1.32
15,U7A U8G U10G U11C C12U C13U,1.41
16,U7A U8G U10G U11C C12U C13A,0.988
17,U7A U8G U10G U11C C12U C13G,1.11
18,U7A U8G U10C U11G C13U,1.53
19,U7A U8G U10C U11G C13A,1.23
20,U7A U8G U10C U11G C13G,1.07
21,U7A U8G G9U U11G C12A,1.38
22,U7A U8G G9U U11G C12G,1.56
23,U7A U8G G9U U11G C12U,1.26
24,U7A U8G U10G U11C C12A C13U,1.51

row,Variant,aptazyme ON/OFF ratio
1,U7A U8G U10G U11C C12A C13G,1.11
2,U7A U8G U10G U11C C12A C13A,1.39
3,U7A U8G U11C C12U,1.31
4,U7A U8G U11C C12G,1.05
5,U7A U8G U11C C12A,1.24
6,U7A U8G U10A U11A C12U C13A,1.72
7,U7A U8G U10A U11A C12U C13U,1.28
8,U7A U8G U10A U11A C12U C13G,1.25
9,U7A U8G U10A U11C C12A C13U,1.53
10,U7A U8G U10A U11C C12A C13A,1.26
11,U7A U8G U10A U11C C12A C13G,1.26
12,U7A U10A C12U C13A,1.18
13,U7A U10A C12U C13U,1.27
14,U7A U10A C12U C13G,1.14
15,U7A U8G G9U U11C C12A C13A,1.68
16,U7A U8G G9U U11C C12A C13G,1.12
17,U7A U8G G9U U11C C12A C13U,1.11
18,U7A U8G U10G U11G C12A,1.24
19,U7A U8G U10G U11G C12U,1.42
20,U7A U8G U10G U11G C12G,1.31
21,U7A U8G U10C U11A C12G C13A,1.22
22,U7A U8G U10C U11A C12G C13G,1.28
23,U7A U8G U10C U11A C12G C13U,1.31
24,U7A U8G U10A U11C C13G,1.25

row,Variant,aptazyme ON/OFF ratio
1,U7A U8G U10A U11C C13U,1.05
2,U7A U8G U10A U11C C13A,1.18
3,U7A U8G U10G U11A C13U,1.3
4,U7A U8G U10G U11A C13G,1.27
5,U7A U8G U10G U11A C13A,1.4
6,U7A U8G G9U U11A C12U,1.38
7,U7A U8G U10G C12U C13U,1.26
8,U7A U8G U10G C12U C13G,1.28
9,U7A U8G U10G C12U C13A,1.11
10,U7A U8G U10G U11C C13A,1.11
11,U7A U8G U10G U11C C13G,1.29
12,U7A U8G U10G U11C C13U,1.3
13,U7A U8G U11C C12U C13G,1.03
14,U7A U8G U11C C12U C13U,1.36
15,U7A U8G U11C C12U C13A,1.43
16,U7A U10A,1.11
17,U7A U8G U10G C12A C13G,1.12
18,U7A U8G U10G C12A C13U,1.15
19,U7A U8G U10G C12A C13A,1.04
20,U7A U8G U10G U11A C12A C13A,1.55
21,U7A U8G U10G U11A C12A C13U,1.34
22,U7A U8G U10G U11A C12A C13G,1.27
23,U7A U10A C13A,1.07
